{"source": "paper PMC2940758", "about": "“The N-Terminal Domain of the Arenavirus L Protein Is an RNA Endonuclease Essential in mRNA Transcription”", "biological_target": "T1, NL1 (N-terminal endonuclease domain of L protein) (Lymphocytic choriomeningitis virus …, UniProt P14240 1-196)", "T1 sequence": "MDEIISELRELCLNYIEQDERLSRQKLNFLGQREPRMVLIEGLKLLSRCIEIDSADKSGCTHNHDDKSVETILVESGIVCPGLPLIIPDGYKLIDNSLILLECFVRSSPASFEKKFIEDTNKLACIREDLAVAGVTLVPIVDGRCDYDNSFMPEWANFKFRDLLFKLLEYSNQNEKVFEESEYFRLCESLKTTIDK", "assay": "EMSA", "settings": "protein: recombinant; tags: N-terminal His6; label: 5'-32P; unpaired", "data": [{"binder": "AUUUUGUUUUUAAUAUUUC (ssRNA)", "note": "[19-mer unstructured RNA]", "values": [{"measurement": "binding result", "result": "binds"}]}]}
